Assay: label from the status in PepcDB records

Sequence | protein production
MSQSSKRKNDSVVETFKDIIPLTFGEEIGNAASHGAAALLTLFILPYAAVHSFNNGGTLESISVSVYVISIFMMFISSTIYHSMQNNTSHKYILRIIDHSMIYVAISGTYTPVLLSVVGGWLGWLVTILLWGTTLWGILYKSIATKVNHRLSLIVYLVMGWVGIIFLPIIIMRTSWWFIFFIFLGGLSYTIGAWFYAQKNKPYFHMIWHIFIVLASFLHMIGIFYFM | failed
MLRIFIPTSNGKISRRRYIFSFILINFIFAFLIIFFNDGEAGFLVIVSTIVLHYLVINMNCQRLRDSGFIYIKTYVFGTLAVYIISIITMIAEDFACSGNGSMIFLICYFSTFSMLMLAPTDSSKQ | failed
SDSLETTQQDYPDCFFQHVKVNVKNPYDLTRQVCSSMDQWLTERLDSEPLSLAILVDSATSILYLSNQSNSFSLLFHYLRVMGRKLSPTLYCVCQLIHFDMGYGDELLKEAKFYDSLILQLDALPLGVPSEQDGRLSIEERDQAISTVLFKILENQIKFFTI | failed
MGHHHHHHSHMSGEKTVVCKHWLRGLCKKGDQCEFLHEYDMTKMSECYFYSKFGECSNKECPFLHIDPESKI | not failed
MKNVLILGAGGQIARHVINQLADKQTIKQTLFARQPAKIHKPYPTNSQIIMGDVLNHAALKQAMQGQDIVYANLTGEDLDIQANSVIAAMKACDVKRLIFVLSLGIYDEVPGKFVEWNNAVIGEPLKPFRRAADAIEASGLEYTILRPAWLTDEDIIDYELTSRNEPFKGTIVSRKSVAALITDIIDKPEKHIGENIGINQPGTDGDKPFFM | not failed
MSLMDYFAIHVVPKLYRGKGAFHPAETGKLTETVSCVREYDVNIFFIRKGNTLIAIDSGYKNHHALLPGCKKIEIDPKAVQALFLTHADPDHAGGLDIRCENCFINAEIYLGEIEENYLTNTIYRKKIGPFGLKNSVKIKDNYHLLKDGQSVSVGDLTIQPFLVPGHTLGHLMYLIDNELLFTGDSIALNQEGGWCFFDLFNYNSEMNIKSLKTLKEKLDLNRIKYVFTSHNGFTDKAKEAFAHVDVIPKWNEKGFIFDKTAPYDCFAD | failed
MTRRGVALVARRLPSSPGRVYAVKIDEGEDVHSVLSSLAEAEDLGFAMVTGIGGMAEATVAFYSPPEATYYTVDVKPPEGRVIEVAAMTGNIVKTSQGYSVHIHVALGVSPGKSISGHLVKGVVKPFMEVFVVELVSGQGTPGTSVFDHREGFKASYKRLELEHHHHHH | failed
MDALEIFKTLFSLVMRFSSYLPSNEEISDMKTTELYAFLYVALFGPKKMKEIAEFLSTTKSNVTNVVDSLEKRGLVVREMDPVDRRTYRVVLTEKGKEIFGEILSNFESLLKSVLEKFSEEDFKVVSEGFNRMVEALSREGR | not failed
MPQGCDRPSHGLRLADEQGRCQIKFVASDSPAEQAGLMIGDEIVALNGLRVSADNFSRRLATYQAGQVLELTIFHDDQLQSFSLTLAEPQPQSYNLRPAATVTSLEHHHHHH | failed
MNKALIVILSTVALDAIGAGLIFPILPDILVEVTGGGDIGFLYGVMLGVFAVMQFVFSPILGALSDRFGRRPVLLLSLAGTLLDYLVMAFSPLGWVLVVGRAMAGITSANMAVASAYITDITPAEQRAQRFGTVGAVMSLGFIIGPVIGGVIGAWWLRAPFLVAALFNGLNLFVALFVLPESRKAGPGKFAFKELNPLAPLVWLWNFKPLLPLVTVSVVFGLVAAIPGTIWVLYGAERFGWDSVHMGLSLSVFGVSGALAQAFLVGPLSRRFGDLGTLMIGVGFDMLAYMLMAFANQSWMGYAVAPLFALGGVAMPALQSLVTSRVSDDQQGQLQGVLASLMSLAGIIGPVLTTAVFFSTKSIWIGTIWLVGAALYLLALPLFATVKTPKAVAA | failed
SKVWKYFGFDTNAEGCILQWKKIYCRICMAQIAYSGNTSNLSYHLEKNHPEEFCEFVKSN | not failed
MSASGLLVEKSGPLSLIQDFGRFGLAHIGITQGGPVDDYAYSWANHLLGNRVNCSAIEITLGNACFIALQDCHLAICGGDLNASVDGHPIANWSDFSIKKGQKLQFGMAKNGLRAYLAVKGGFNVPEHLGSSSTVLREALGGLEANGNALKAGDVLPFDAHSLPNHKPRIMTFRFKPDYNLPITLRVIEGYQCDDFSVEAKEKFYSGSFAISPDSNRMGYRLEGNTVKPPYDGILSEGIALGAIQIPHDGNPIVLLNDHQTIGGYPKLGCVARIDLPRLAQAKPGQKVRFVKGDRQGLQDVWCQWAQFFGY | failed

Reference: a protein production outcome set (Wang et al. 2014)
